dH and stoichiometry N data for one substance are collected here from publication doi:10.1101/2020.09.09.287375.

In this experiment the target is human serum albumin (human) (UniProt P02768). As to the kind of experiment: ITC. In general terms: In ITC the heat of successive injections is recorded.

The stoichiometry N is the number of molecules, sites or subunits per partner or assembly. Substance dalbavancin (peptide) had a dH of -8.9 kcal/mol and a stoichiometry N of 0.84.
